Results as given in US20240174744A1 (SCIRHOM, published 2024).

T1: dog iRhom2 full length wild type, C-terminally tagged with 3 consecutive copies of the T7 epitope (dog, UniProt Q00M95 1-827)
T1 construct: whole, on cells; also called Dog-iR2-FL-WT-T7
T1 sequence: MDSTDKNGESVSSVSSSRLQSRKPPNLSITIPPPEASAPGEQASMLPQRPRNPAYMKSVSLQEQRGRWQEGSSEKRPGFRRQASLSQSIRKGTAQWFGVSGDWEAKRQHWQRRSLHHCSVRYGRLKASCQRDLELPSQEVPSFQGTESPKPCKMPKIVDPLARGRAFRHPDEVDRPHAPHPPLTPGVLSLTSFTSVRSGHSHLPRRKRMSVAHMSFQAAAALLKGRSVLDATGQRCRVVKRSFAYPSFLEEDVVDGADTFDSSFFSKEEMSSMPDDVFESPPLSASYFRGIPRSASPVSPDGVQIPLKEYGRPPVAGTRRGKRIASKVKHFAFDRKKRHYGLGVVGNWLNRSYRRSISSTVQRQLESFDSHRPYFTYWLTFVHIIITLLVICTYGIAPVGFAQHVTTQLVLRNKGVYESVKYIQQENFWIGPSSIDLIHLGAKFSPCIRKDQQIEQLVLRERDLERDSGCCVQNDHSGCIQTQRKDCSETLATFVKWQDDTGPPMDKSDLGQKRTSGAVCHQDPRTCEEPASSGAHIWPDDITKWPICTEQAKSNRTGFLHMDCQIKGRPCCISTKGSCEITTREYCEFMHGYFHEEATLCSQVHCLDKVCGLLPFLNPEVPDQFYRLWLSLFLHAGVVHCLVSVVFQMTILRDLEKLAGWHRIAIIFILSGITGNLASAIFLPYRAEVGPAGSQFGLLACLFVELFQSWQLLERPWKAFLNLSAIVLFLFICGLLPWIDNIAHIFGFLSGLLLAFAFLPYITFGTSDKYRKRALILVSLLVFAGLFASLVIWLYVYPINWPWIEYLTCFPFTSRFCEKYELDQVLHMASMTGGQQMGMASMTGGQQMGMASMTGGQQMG

B1: antibody 5 (antibody, V domains shown)
VH: QVTLKESGPGILQPSQTLSLTCSFSGFSLSTFGMGVGWIRQPSGKGLEWLAHIWWDDEKYYNSALKSRLTISKATSKNQAFLKIANVDTADTATYYCARISNYGSNYWYFNVWGTGTTVTVSS
VL: QVVLTQSPALMSASPGEKVTMTCSAGSSVSCMYWYQQKPGSSPRVLIYDTSNLASGVPARFTGSGSGTSYSLTISRMEAEDAASYYCQQWNSYPLTFGAGTKLELK
notes: Mouse IgG, kappa light chain; also called clone #5; purified antibody 5
B2: antibody 3 (antibody, V domains shown)
VH: QVTLKESGPGILQPSQTLSLTCSFSGFSLTTFAMGIGWVRQPSGKGLEWLAHIWWDGEKYNNPVLKSRLTISKDTSKNQVFLRIANVDTPDTATYYCARISSIYYIIDNWGQGTSVTVSS
VL: DIVLTQSPATLSVTPGHSVSLSCRASQSISNNLHWYQKKSHESPRLLIKYVSQSISGIPSRFSGSGSGTDFTLSINSVETEDFGMYFCQQSYNWPLTFGAGTKLELK
notes: Mouse IgG, kappa light chain; also called clone #3; purified antibody 3

Target: T1, dog iRhom2 full length wild type, …
Assay: FACS, MEF-DKO-dog-iR2-FL-WT-T7 cells, 3 µg/ml
Protocol: In brief, immortalized MEF-DKO-EV control cells, MEF-DKO-rhesus-iR2-FL-WT-T7 cells, MEF-DKO-cyno-iR2-FL-WT-T7 cells, MEF-DKO-dog-iR2-FL-WT-T7 cells and MEF-DKO-rabbit-iR2-FL-WT-T7 cells, as well as their respective iRhom1 counterparts, were harvested with 10 mM EDTA in PBS, washed and resuspended in FACS buffer (PBS, 3% FBS, 0.05% sodium azide), and seeded in Nunc U-bottom 96-well plates (Thermo Fisher Scientific, USA) at approximately 3×10⁵ cells per well. To pellet cells and remove supernatants, the plates were centrifuged at 1,500 rpm and 4° C. for 3 minutes. For primary staining, cells were resuspended in 100 μl per well of either FACS buffer alone (controls), mouse monoclonal anti-T7 IgG (Merck Millipore, USA) at 3 μg/ml FACS buffer or the antibodies of the present disclosure also at 3 μg/ml FACS buffer and incubated on ice for 1 hour. Afterwards, plates were centrifuged at 1,500 rpm and 4° C. for 3 minutes and washed twice with 200 μl per well of FACS buffer. For secondary staining, cells were spun down and resuspended in 100 μl per well of PE-conjugated goat anti-mouse IgG F(ab′)2 detection fragment (Dianova, Germany) diluted 1:100 in FACS buffer. Protected from light, the cell suspensions were incubated on ice for 1 hour. […] Finally, cells were resuspended in 150 μl per well of FACS buffer and analyzed using a BD Accuri™ C6 Plus flow cytometer (Becton Dickinson, Germany).

Row | Binder | binding result
1 | B1 | binds
2 | B2 | binds
